Article PMC4019695

Experiments:
[1] = target: Drosophila 80S ribosome (Drosophila (endogenous in fly embryos)) (UniProt P46222); experiment: FRET or BRET
[2] = target: Drosophila 80S ribosome (Drosophila (endogenous in fly embryos)) (UniProt P46222); experiment: SEC

Row | Kd [1] | fold reduction of binding against NT-dFMRP [2] | Substance
1 | > 2000 nM | – | NT-dFMRP ΔRGG mutant, residues 220-413 (from UniProt Q9NFU0 220-413) (domain or fragment)
2 | 130 nM | 2 fold | NT-dFMRP KH1 (I244N) mutant (from UniProt Q9NFU0 220-681) (domain or fragment)
3 | 61 nM | – | NT-dFMRP KH2 (I307N) mutant (from UniProt Q9NFU0 220-681) (domain or fragment)
